This note sets out measurements from paper PMC3423576 (Journal of molecular biology, 2012).

This series concerns the molecule itself. Kind of series: crystal structure.

B1: CusB periplasmic membrane fusion protein (natural protein, E. coli, UniProt P77239 29-407, looked up)
chain: EPPAEKTSTAERKILFWYDPMYPNTRFDKPGKSPFMDMDLVPKYADEESSASGVRIDPTQTQNLGVKTATVTRGPLTFAQSFPANVSYNEYQYAIVQARAAGFIDKVYPLTVGDKVQKGTPLLDLTIPDWVEAQSEYLLLRETGGTATQTEGILERLRLAGMPEADIRRLIATQKIQTRFTLKAPIDGVITAFDLRAGMNIAKDNVVAKIQGMDPVWVTAAIPESIAWLVKDASQFTLTVPARPDKTLTIRKWTLLPGVDAATRTLQLRLEVDNADEALKPGMNAWLQLNTASEPMLLIPSQALIDTGSEQRVITVDADGRFVPKRVAVFQASQGVTALRSGLAEGEKVVSSGLFLIDSEANISGALERMRSESATHAH
By stoichiometry N is commonly meant a count of units in the complex or per binding partner. On to B1, for which the “stoichiometry N” value stood at 6.
